Target: Tag1-LAG3 protein (UniProt P18627)
Assay: HTRF blocking assay (Cisbio kit): Tag1-LAG3 with Tag2-FGL1 and antibody

Tag1-LAG3 protein, sequence (P18627 23-450): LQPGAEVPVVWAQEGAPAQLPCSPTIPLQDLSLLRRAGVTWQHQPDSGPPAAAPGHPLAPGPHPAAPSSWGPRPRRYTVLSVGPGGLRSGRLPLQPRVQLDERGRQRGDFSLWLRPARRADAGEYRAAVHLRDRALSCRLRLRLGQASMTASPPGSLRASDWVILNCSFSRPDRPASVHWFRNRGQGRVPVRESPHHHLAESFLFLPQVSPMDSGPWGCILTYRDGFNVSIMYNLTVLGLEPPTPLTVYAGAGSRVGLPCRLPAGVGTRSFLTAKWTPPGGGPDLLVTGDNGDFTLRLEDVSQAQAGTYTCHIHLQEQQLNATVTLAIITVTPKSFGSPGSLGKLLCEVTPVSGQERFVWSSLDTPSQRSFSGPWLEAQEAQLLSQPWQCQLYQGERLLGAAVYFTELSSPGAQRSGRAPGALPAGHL

IC50 (read off the curve): 2 µg/mL
Substance: Positive control (ab40465) (antibody)

Source: patent publication US20230074657A1
